To fix the notation:
B1: KCD033 (antibody, V domains shown)
VH: EVQLQQSGPELVKPGASMKISCTASGYSFTGYTMTWVKQSHGKNLEWIGLINPYNGGTNYNQKFKGKATLTVDKSSSIAYMELLSLTSEDSAVYYCARRHYGSNWDYWGQGTTLTVSS
VL: DIKLTQSPSSIYTSLGERVTITCKASQDINTYLSWFQQRPGKSPKTLIYRADRLVDGVPSRVRGSGSGQDYSLTISSLEYEDMGIYYCLQYDEFPYTFGGGTKLEIK
B2: KCD036 (antibody, V domains shown)
VH: B1 VH with T23K, L70F, I78T, N104S
VL: B1 VL with I11M, T13A, R39K, D52N, V62F, R63S, D82E
B3: KCD010 (antibody, V domains shown)
VH: EVLLQQSGPELVKPGASVKIPCKASGYTFTDYDMDWVKQSHGKSLEWIGHINPNNGGTIYNQKFKGKATLTVDKSSSTAYMELRSLTSEDTAVYYCGTGDFAYWGHGTLVTVSA
VL: QIVLTQSPAIMSVSPGEKVTLTCSASSSVSSSYLYWYQKKPGSSPKLWIYSTSNLASGVPARFSGSGSGTSYSLTISSMEAEDAASYFCHQWSSYPPTFGAGTKLELK
B4: KCD023 (antibody, V domains shown)
VH: B3 VH with D33N, M34I, H50D, T58I, I59N, F101Y, H106Q
VL: B3 VL with I10F, V13A, K39Q, A61G, S93T
B5: KCD011 (antibody, V domains shown)
VH: EVKLVESGGGLVQPGGSLKLSCAASGFTFSSNTMSWVRQTPEKRLEWVAYITNGGGSTYYPDTVKGRFTISRDNARNTLYLQMSSLKSEDTAMYYCARHDYYTMDYWGQGTSVTVSS
VL: DIQMTQSPSSLSASLGGKVTITCKASQDINKYIAWYQHKPGKGPRLLIHYTSTLQPGIPSRFSGSGSGRDYSFSISNLEPEDIATYYCLQYDNLLYTFGGGTKLEIK
B6: KCD062 (antibody, V domains shown)
VH: EVKLVESGGGLVQPGGSLKLSCAASGFTFSTYIMSWVRQTPEKRLEWVAYITSGGSSTYYPDTVKGRFTISRDNAKSTLYLQMSSLKSEDTAMYYCARHAHFYAMDYWGQGTSVTVSS
VL: B5 VL
B7: KCD057 (antibody, V domains shown)
VH: EVKLVESGGGLVQPGGSLKLSCAASGFTFSNYIMSWVRQTPEKRLEWVAYITNGGGATYYPDTVKGQFTISRDNAKNTLYLQMSSLKSEDTAIYYCARHDFYALDFWGQGTSVTVSS
VL: B5 VL with Q90K
B8: KCD056 (antibody, V domains shown)
VH: B5 VH with L20V, S31T, N32Y, V64E, R76K, A97V, T103A
VL: B5 VL with K103T
B9: KCD063 (antibody, V domains shown)
VH: B6 VH with T28I, T31S, S53N, S56G, F68L, S77N, A97V, F102Y
VL: B5 VL with A34T
B10: KCD064 (antibody, V domains shown)
VH: B6 VH with T31S, E46G, S56G, S77N, A100G, H101T, F102G
VL: B5 VL with K103E
B11: KCD058 (antibody, V domains shown)
VH: B7 VH with G10D, N31R, Q39L, Y50F, A57N, Y60H, Q67R, K76N, F101Y, F106Y
VL: B5 VL
B12: KCD077 (antibody, V domains shown)
VH: EVQLQQSGAELVRPGALVKLSCKASGFNIKDYYMHWVKQRPEQGLEWIGWIDPENGHTIYDPRFQGKATITADTSSNTAYLQLSSLTSEDTAVYYCSRGLLGFAYWGQGTLVTVSA
VL: DIVMTQSQKFMSTSVGDRVSVTCKASQNVGTNVAWYQQKPGQSPKALIYTASYRYSGVPDRFTGSGSGTDFTLTISNVQSEDLAEYFCQQYNSYPHMYTFGGGTKLEIK
B13: KCD014 (antibody, V domains shown)
VH: B6 VH with T31S, S53N, S56G, S57N, V64I, S77N, A100G, H101T, F102G
VL: EIVLTQSPTTMAASPGEKITITCSASSSISSNYLHWYQQKPGFSPKLLIYRTSNLASGVPARFSGSGSGTSYSLTIGTMEAEDVATYYCQQGSSIPLTFGAGTKLELK
B14: KCD102 (antibody, V domains shown)
VH: QVQLQQPGAELVRPGTSVKLSCKASGYTFTSYWMHWVKQRPGQGLEWIGVIDPSDSYTNYNQKFKGKATLTVDTSSSTAYMQLSSLTSEDSAVYYCARNGYDGSMDYWGQGTSVTVSS
VL: EIQMTQTTSSLSASLGDRVTISCRASQDISNYLNWYQQKPDGTVKLLIYYPSRLHSGVPSRFSGSGSGTDYSLTISNLEQEDFATYFCQQGNTLPYTFGGGTKLEIK
B15: KCD104 (antibody, V domains shown)
VH: B14 VH with N59Y, S104A
VL: B14 VL
B16: KCD103 (antibody, V domains shown)
VH: B14 VH with N59K, G66D, D73E, R98G
VL: B14 VL with E1D, Y32S, P51T, G57R, E79D, F83I, G91A
B17: KCD101 (antibody, V domains shown)
VH: B14 VH with A97G
VL: B14 VL with E1D
B18: KCD128 (antibody, V domains shown)
VH: QVQLQQPGAELVRPESSVKLSCKASGYTFTSYWMDWVMQRPGQGLEWIGNIYPSGSETHYNQKFKDKATLTVDKSSTTAYMQLSSLTFEDSAVYYCARSGFIGSRYLYYFDYWGQGTTLTVSS
VL: DIVMTQSHKFMSTSVGDRVTITCKASQDVSNAVAWYQLKPGQSPKLLIYSASYRYTGVPDRFTGSGSGTDFTFTISSVQAADLAVYYCQQHYITPYTFGGGTKLEIK
B19: KCD009 (antibody, V domains shown)
VH: QIQLVQSGPELKKPGETVKISCKASGYIFRNYGMNWVKQGPGKGLKWMGWINTYTGEPTYADDFKGRFAFSLETSASTAYLQISNLKNEDTATYFCVRDGPGFAYWGQGTLVTVSA
VL: DVLMTQTPLSLPVSLGDQASISCRSSLIIEHSDGNTYLEWYLQKPGQSPKLLIYKVSNRFSGVPDRFSGSGSGTDFTLKISRVEADDLGVYYCFQGSHVPVTFGAGTNLELK
B20: KCD022 (antibody, V domains shown)
VH: DVQLQESGPDLVKPSQSLSLTCTVTGYSITSGYSWHWIRQFPGNTLEWMGYIHYSGSTNYNPSLESRISFTRDTSKNQFFLQLNSVTTEDTATYYCALHFYGYNLGWYFDVWGAGTTVTVSS
VL: DIVMTQSHKFMSTSIGDRVIITCKASQDVGTTVAWYQQRPGQSPKLLIYWASTRHTAVPDRFTGSGSGTDFTLTISNVQSEDLADYFCQQYTSYPLTFGAGTQLELK
B21: KCD015 (antibody, V domains shown)
VH: EVQLQQSGAELVKPGASVKLSCTASGFNIKDTYMHWVKQRPEQGLEWIGRIDPANGYTEYDPKFQGKATITADTSSNTAYLQLSSLTSEDSAAYYCTSAMEFWGQGTSVTVSS
VL: QIVLTQSPAILSASPGEKVTMTCSASSSVSYIYWYQQKPRSSPRLLIYDTSNLASGVPVRFSGSGSGTSYSLTISRMEAEDAATYYCQQWSSYPFTFGGGTKLEVK
B22: KCD048 (antibody, V domains shown)
VH: EVQLQQSGADLVKPGASVKLSCTASGFNIKATYMHWVRQRPEKGLEWIGRIDPANGHTIYDPQFQGKATITSDTSSNTAYLQLNSLTSEDTAVYYCAEAMDYWGQGTSVTVSS
VL: B21 VL with L11M, M21L, S26T, I32M, R40G, A82D, S92N, V105I
B23: KCD042 (antibody, V domains shown)
VH: EVQLQQSGAELVKPGASVRLSCTASGFNIKHTYIHWVSQRPEQGLEWIGKIDPANGNTKYDPKFQGKATITADTSSNTAYLQLSSLTSEDTAVYYCVNAMEYWGQGTSVTVSS
VL: QSVLTQSPAIMSASPGEKVTMTCSANSSVSDMYWFQQRPGSSPRLLIYDTSNLASGVPVRFSGSGSGTSYSLTISRMEAEDAATYYCQQWSTYPWTFGGGTKLEIK
B24: KCD044 (antibody, V domains shown)
VH: B23 VH with I34M, Q43R, A79V, V97L
VL: B23 VL with F35Y
B25: KCD122 (antibody, V domains shown)
VH: EVQLQQSGPELVKPGASVKISCKASGYTFTDYYKNWMRQRHGESLEWIGDINPNNGDANYNQKFKGKATLTVDKSSSTAYMELRSLTSEDSAVYFCAREGPSFAYWGHGTLVTVSA
VL: DVLMTQTPLSLPVSLGDQASISCRSSQTIVHSNGDTYLEWYLQKPGQSPNLLIYKVSNRFSGVPDRFSGSGSGTDFTLKISRVEAEDLGVYYCFQGSHVPPTFGGGTKLEIK
B26: KCD003 (antibody, V domains shown)
VH: EVQLQQSRPELVKPGASVKIFCKASGYTFTDYYMNWMRQRHGETLEWIGDINPNNGDPSYNQKFKDKATLTVDKSSSTASMELRSLTSDDSAVYYCAREGPSFAYWGQGTLVTVSA
VL: B25 VL with D17E
B27: KCD123 (antibody, V domains shown)
VH: B25 VH with Q3H, Y32F, D57G, A58T, F95Y, H108Q
VL: B25 VL
B28: KCD121 (antibody, V domains shown)
VH: B25 VH with A58T, N59S, K65R, Y80F, F95Y, H108Q
VL: B25 VL with S26N, K79R
B29: KCD118 (antibody, V domains shown)
VH: B25 VH with S25F, N55S, F95Y
VL: B25 VL with V90I

Changes are numbered by the printed parent chain.

T1 sequence (P00746 26-253): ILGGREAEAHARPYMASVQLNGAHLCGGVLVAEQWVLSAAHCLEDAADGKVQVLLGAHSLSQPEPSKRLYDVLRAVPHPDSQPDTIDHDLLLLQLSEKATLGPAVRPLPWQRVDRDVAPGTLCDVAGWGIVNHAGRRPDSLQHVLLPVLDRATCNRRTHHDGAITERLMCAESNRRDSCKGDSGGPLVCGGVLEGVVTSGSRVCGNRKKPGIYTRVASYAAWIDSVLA

The assay addresses T1, human Complement Factor D (CFD), purified from human serum (human, UniProt P00746 26-253).
T1 construct: serum purified (CompTech A136); also called serum purified CFD; hCFD-Comptech
The experiment in a line: SPR MX96, mAbs amine-coupled, CFD injected.
B1: the equilibrium dissociation constant (Kd) – broadly, a measure of binding affinity in units of concentration – worked out at 10.9 nM.

As for B2, binding was put at a Kd of 25.5 nM.

Molecule B3 returned a Kd of 3.05 nM.

On to B4, for which the dissociation constant Kd stood at 5.29 nM.

B5 yielded a Kd of 77.5 nM.

Turning to B6, the affinity, expressed as Kd, was 24 nM.

B7 yielded a Kd of 2.71 nM.

In turn, B8 displayed a Kd of 60.2 nM.

Molecule B9 registered a Kd of 33.3 nM.

Regarding B10, the affinity, expressed as Kd, was 20.3 nM.

B11 had a Kd of 9.91 nM.

B12 displayed a Kd of 16.9 nM.

B13 had a Kd of 21.8 nM.

As to B14, the equilibrium dissociation constant (Kd) worked out at 3.56 nM.

The molecule B15 showed a dissociation constant Kd of 1.58 nM.

Consider B16, for which the Kd amounted to 4.37 nM.

Turning to B17, the Kd was 3.78 nM.

For B18, the Kd is 14 nM.

Molecule B19 yielded a Kd of 5.57 nM.

For B20, the Kd was 56.8 nM.

Consider B21, for which the Kd was found to be 6.23 nM.

Molecule B22 came in with an equilibrium dissociation constant (Kd) of 1.87 nM.

B23 came in with a Kd of 1.43 nM.

As to B24, binding was characterised by a dissociation constant (Kd) of 2.62 nM.

Molecule B25 showed an equilibrium dissociation constant (Kd) of 1.44 nM.

For the molecule B26, the Kd stood at 1.05 nM.

The molecule B27 registered a Kd of 2.77 nM.

For B28, binding was put at a Kd of 1.8 nM.

B29 had a Kd of 0.757 nM.
